From paper PMC6947424, “New Targeted Gold Nanorods for the Treatment of Glioblastoma by Photodynamic Therapy” (Journal of Clinical Medicine, 2019)
One block for each molecule: values may come before it. No end group written: not given here. *: point of attachment. Pyropheophorbide(a) = C=Cc1c(C)c2cc3nc(c4c5[nH]c(cc6nc(cc1[nH]2)C(C)=C6CC)c(C)c5C(=O)C4)[C@@H](CCC(=O)*)[C@@H]3C; Hexanoyl(6-maleimido) = O=C1C=CC(=O)N1CCCCCC(=O)*

Experiments:
[1] = in EtOH; ref [73]; cited from earlier work
Description: (§1) Fluorescence quantum yields (Φf) were determined using a tetraphenyl porphyrin (TPP) solution as the fluorescence standard (Φf = 0.11 in toluene, taking into account solvent refractive index and absorption efficiencies. For the direct determination of ^1O2 quantum yield (ΦΔ), excitation was performed with a Xe-arc, the light was separated in a SPEX 1680, 0.22 µm double monochromator. Detection at 1270 nm was carried out through a PTI S/N 1565 monochromator and the emission was monitored by a liquid nitrogen cooled Ge-detector (EO-817L, North Coast Scientific Co, OH, USA). Rose Bengal (R ...

[2] = in toluene; ref [72]; cited from earlier work
Description: as §1, with “... || These findings are also consistent with the Φf value of Pyro reported by other authors (Φf = 0.3 and in methanol). […] This property can serve in the ...” for “...”

[3] = Singlet oxygen production (quantum yield and lifetime); format: physicochemical; conditions: ethanol
Description: (§2) The setup and the protocol to evaluate the photophysical characterizations including the absorption, fluorescence, and singlet oxygen emission spectra in addition to the fluorescence and singlet oxygen lifetimes have been previously described by our team. The absorption spectra were recorded on a UV-3600 UV–vis double beam spectrophotometer (Shimadzu, Marne La Vallée, France) in the wavelength range of 200-800 nm. The measurements were performed on the molecules dispersed in ethanol in quartz cuvettes with an optical path of 10 mm. The fluorescence spectra were recorded on a Horiba Jobin Yvon Fluorolog-3 (FL3-222) spectrofluorimeter equipped with a 450W xenon lamp, a thermostated cell compartment (25 °C), a R928 (Hamamatsu, Massy, France) UV–vis photomultiplier and a liquid nitrogen cooled InGaAs infrared detector (DSS-16A020L Electro-Optical System Inc., Phoenixville, PA, USA). The excitation spectrometer used is a SPEX double grating monochromator (1200 grooves per mm blazed at 330 nm). The fluorescence was measured using the UV–vis detector through a SPEX double grating monochromator (600 grooves per mm blazed at 500 nm). The singlet oxygen production was measured using the IR detector through a SPEX double grating monochromator (600 grooves per mm blazed at 1 μm).
as §1, with “(RB) was chosen as a reference solution because of its high ^1O2 quantum yield in EtOH (ΦΔ = 0.68). The absorbance value at the excitation wavelengths (412 nm) of both the reference and the sample solutions were set to approximately 0.2 by dilution. The samples were all prepared in ethanol.” for “(R ...”
The quantum yield of singlet oxygen production is determined by the equation (2):(2) ΦΔ=ΦΔ0×I/I0×[…] where ΦΔ and ΦΔ0, I and I0, DO and DO0 are the luminescence quantum yields of singlet oxygen, the luminescence intensities and the optical densities of the sample and reference, respectively.
(§3) Fluorescence lifetimes were measured by Time-Correlated Single Photon Counting (TCSPC) using for excitation a pulsed laser diode LDH-P-C-405 coupled with a PDL 800-D driver (both from PicoQuant GmbH, Berlin, Germany) emitting at 408 nm (FWHM < 70 ps, 1 MHz) and an SPCM-AQR-15 avalanche photodiode (EG & G, Vaudreuil, Canada) coupled with a 650 nm (±10 nm) interference long-wave pass filter as the detection system. The acquisition system was a PicoHarp 300 module with a PHR-800 four-channel router (both from PicoQuant GmbH, Berlin, Germany). Fluorescence decays were recorded using the single photon counting method (four optical faced quartz cells for pure products in ethanol). Data were collected, and up to 1000 counts were accumulated in the maximum channel and analyzed using Fluofit TCSPC software (PicoQuant GmbH, Berlin, Germany) based on iterative reconvolution using a Levensberg-Marquandt algorithm. Singlet oxygen lifetime measurements have been performed on a TEMPRO-01 spectrophotometer (Horiba Jobin Yvon, Palaiseau, France). The apparatus was composed of a pulsed diode excitation source SpectraLED-415 emitting at 415 nm, a cuvette compartment, a Seya–Namioka type emission monochromator (600–2000 nm), and an H10330-45 near-infrared photomultiplier tube with a thermoelectric cooler (Hamamatsu, Massy, France) as the detection system. The system was monitored by a single photon counting controller FluoroHub-B and the software DataStation and DAS6 (Horiba Jobin Yvon, Palaiseau, France). […]

[4] = Fluorescence emission (quantum yield and lifetime); format: physicochemical; conditions: ethanol
Description: as §2
as §1, with “(RB) was chosen as a reference solution because of its high ^1O2 quantum yield in EtOH (ΦΔ = 0.68). The absorbance value at the excitation wavelengths (412 nm) of both the reference and the sample solutions were set to approximately 0.2 by dilution. The samples were all prepared in ethanol.” for “(R ...”
The quantum yield of fluorescence is determined by the equation (1):(1) Φf=Φf0×If/If0×[…]×(n/n0)^2 where Φf and Φf0, If and If0, DO and DO0, n and n0 are the quantum yields, intensities, optical densities and refraction indices of the sample and reference, respectively.
as §3

UV-vis absorption = format: physicochemical; conditions: ethanol, Soret band
Description: as §2
The photophysical properties at the different synthetic stages of the hybrid AuNRs@PEG-MI-K(Pyro)DKPPR-OH, including the peptide derivatives as intermediates, were studied and compared to that of free Pyro. These properties include the UV-vis absorption, the florescence emission (quantum yield (Φf) and lifetime (τf)) and the ^1O2 production (quantum yield (ΦΔ) and lifetime (τΔ)). To determine these properties, the optical density (OD) of the Soret band of the Pyro component (412 nm) was adjusted at about 0.2. Controls, such as TPP dissolved in toluene, as a standard for fluorescence emission, and RB dissolved in ethanol, as a standard for ^1O2 production, were used. Ethanol was chosen to dissolve the studied molecules since it is a convenient solvent for the detection of fluorescence and ^1O2 emission. […]

[5] = biological target: T1, recombinant NRP-1 protein (neuropilin-1) (UniProt O14786 22-856); test: ELISA; competition; NRP-1 coated on 96 well plate at 2 μg/mL in PBS overnight at room temperature, blocked with PBS 0.5 % BSA; 5 ng/mL biotinylated VEGF-A165 in blocking buffer with 2 μg/mL heparin, with different peptide concentrations of competitor, 2 h at room temperature; streptavidin-HRP, OD 450 nm; conditions: both partners purified
T1 construct: Neuropilin-1 (NRP-1), recombinant protein bought from Bio-Techne; Coated on the ELISA plate; also called neuropilin-1 receptor; NPR-1; source: bought: Bio-Techne
T1 sequence (looked up): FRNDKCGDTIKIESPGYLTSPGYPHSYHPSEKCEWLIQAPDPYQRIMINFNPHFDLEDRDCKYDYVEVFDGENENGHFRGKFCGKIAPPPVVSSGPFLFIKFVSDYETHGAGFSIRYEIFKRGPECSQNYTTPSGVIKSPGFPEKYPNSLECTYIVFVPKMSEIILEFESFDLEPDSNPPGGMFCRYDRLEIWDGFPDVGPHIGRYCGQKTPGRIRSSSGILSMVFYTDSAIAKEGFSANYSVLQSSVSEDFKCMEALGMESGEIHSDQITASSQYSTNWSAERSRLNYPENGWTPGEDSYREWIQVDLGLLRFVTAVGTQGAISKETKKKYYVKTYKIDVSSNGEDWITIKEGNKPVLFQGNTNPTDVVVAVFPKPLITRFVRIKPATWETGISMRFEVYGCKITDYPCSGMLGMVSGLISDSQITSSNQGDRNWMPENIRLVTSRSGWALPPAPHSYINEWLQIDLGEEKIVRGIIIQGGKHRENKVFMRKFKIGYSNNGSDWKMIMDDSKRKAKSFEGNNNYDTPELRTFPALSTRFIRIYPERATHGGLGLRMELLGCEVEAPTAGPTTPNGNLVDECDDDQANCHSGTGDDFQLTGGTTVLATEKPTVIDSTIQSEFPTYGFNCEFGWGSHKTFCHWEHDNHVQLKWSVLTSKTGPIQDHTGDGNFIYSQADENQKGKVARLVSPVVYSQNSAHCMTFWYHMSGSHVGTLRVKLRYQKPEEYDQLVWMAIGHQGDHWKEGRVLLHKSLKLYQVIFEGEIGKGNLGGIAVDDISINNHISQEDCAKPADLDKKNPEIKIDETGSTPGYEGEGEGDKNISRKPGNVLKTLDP

Molecule: O=C([O-])c1c(Cl)c(Cl)c(Cl)c(Cl)c1-c1c2cc(I)c(=O)c(I)c-2oc2c(I)c([O-])c(I)cc12.[Na+].[Na+] [Rose Bengal]
- ΦΔ of singlet oxygen reference [1]: 0.68

Molecule: C1=Cc2nc1c(-c1ccccc1)c1nc(c(-c3ccccc3)c3ccc([nH]3)c(-c3ccccc3)c3ccc([nH]3)c2-c2ccccc2)C=C1 [TPP, tetraphenyl porphyrin]
- Φf of fluorescence standard [2]: 0.11

Molecule: H-K(Pyro)DKPPR-OH [DKPPR peptide extended with Pyro-bearing lysine, free N-terminus]
- τΔ (singlet oxygen lifetime) [3]: 14 μs
- ΦΔ (singlet oxygen quantum yield) ([3]; excitation 412 nm, detection 1270 nm, Rose Bengal as reference): 0.44
- τf (fluorescence lifetime) ([4]; TCSPC, single exponential fit): 6.8 ns
- Φf (fluorescence quantum yield) ([4]; excitation 412 nm, TPP in toluene as standard, 25 °C): 0.34
- λmax (UV-vis absorption): 412 nm

- IC50 [5]: 1500 nM
B1: MI-K(Pyro)DKPPR-OH (peptide)
peptide: {Hexanoyl(6-maleimido)}-K(Pyropheophorbide(a))DKPPR-OH
SMILES: C=Cc1c(C)c2cc3nc(c4c5[nH]c(cc6nc(cc1[nH]2)C(C)=C6CC)c(C)c5C(=O)C4)[C@@H](CCC(=O)NCCCC[C@H](NC(=O)CCCCCN1C(=O)C=CC1=O)C(=O)N[C@@H](CC(=O)O)C(=O)N[C@@H](CCCCN)C(=O)N1CCC[C@H]1C(=O)N1CCC[C@H]1C(=O)N[C@@H](CCCNC(=N)N)C(=O)O)[C@@H]3C
notes: KDKPPR peptide; first lysine bears Pyro on its side chain and MI on its alpha-amine; free C-terminal acid; also called PP-PS conjugate; peptide-photosensitizer conjugate; source: synthetic peptide (Fmoc/tBu solid phase, preparative HPLC)

- IC50 [5]: 1100 nM
B2: AuNRs@PEG-MI-K(Pyro)DKPPR-OH (other)
peptide: K(Pyropheophorbide(a))DKPPR-OH
modifications: not fully specified (N-terminus); printed as AuNRs@PEG-MI-K(Pyro)DKPPR-OH; also: MI joined by thioether to AuNRs@PEG-SH
notes: KDKPPR peptide of m4, grafted through its N-terminal maleimide onto the surface of PEGylated gold nanorods; Many peptide copies on each nanorod (multivalent); 1 mg/mL of the nanorods holds 257.7 µM of peptide; also called hybrid AuNRs; functionalized AuNRs

- IC50 [5]: 2000 nM
B3: H-KDKPPR-OH peptide (peptide)
peptide: H-KDKPPR-OH
notes: free peptide with free N-terminus (H-) and free C-terminal acid (-OH), developed by the authors' team to target NRP-1; also called free KDKPPR peptide; source: synthetic peptide
